Reference: paper PMC3032679 (Journal of Translational Medicine, 2011)
Ends that are not written are not given here.

Key:
human recombinant Hsp90α [1] = target: T1, human recombinant Hsp90α (human, UniProt P07900 1-732); experiment: SPR; Biacore 3000; biotin-TPR peptide immobilised on streptavidin (SA) chip; Hsp90 or Hsp70 (0.3, 1 or 2 μM) as analyte, 30 μl/min, 25°C, HBS-EP buffer pH 7.4; settings: both partners purified
T1 construct: Heat shock protein 90 alpha (Hsp90α), human, recombinant; also called heat shock protein 90; source: bought: Stressgen Bioreagents

human recombinant Hsp90α [2] = target: T1, human recombinant Hsp90α; experiment: SPR; competition; Hsp90 or Hsp70 (1 μM) preincubated with TPR peptide (14, 140 or 700 μM) passed over Hop, FKBP5 or PP5 immobilised on CM5 chip; signal without peptide = 100% binding; 25°C, HBS-EP buffer pH 7.4; settings: both partners purified

Row | Kd (human recombinant Hsp90α [1]) | binding result (human recombinant Hsp90α [2]) | Binder
1 | 1420 nM | – | KAYARIGNSYFK (also: biotin-conjugated, position not given here, Immobilised on a streptavidin sensor chip by its biotin; also called biotin-TPR; immobilized TPR peptide; source: synthetic peptide) [Biotin-conjugated TPR peptide]
2 | – | binds | human recombinant PP5 (natural protein, UniProt P53041 1-499, looked up, PP5 (protein phosphatase 5), human, recombinant; Abnova recombinant proteins often carry a GST tag (surmise); source: bought: Abnova) MAMAEGERTECAEPPRDEPPADGALKRAEELKTQANDYFKAKDYENAIKFYSQAIELNPSNAIYYGNRSLAYLRTECYGYALGDATRAIELDKKYIKGYYRRAASNMALGKFRAALRDYETVVKVKPHDKDAKMKYQECNKIVKQKAFERAIAGDEHKRSVVDSLDIESMTIEDEYSGPKLEDGKVTISFMKELMQWYKDQKKLHRKCAYQILVQVKEVLSKLSTLVETTLKETEKITVCGDTHGQFYDLLNIFELNGLPSETNPYIFNGDFVDRGSFSVEVILTLFGFKLLYPDHFHLLRGNHETDNMNQIYGFEGEVKAKYTAQMYELFSEVFEWLPLAQCINGKVLIMHGGLFSEDGVTLDDIRKIERNRQPPDSGPMCDLLWSDPQPQNGRSISKRGVSCQFGPDVTKAFLEENNLDYIIRSHEVKAEGYEVAHGGRCVTVFSAPNYCDQMGNKASYIHLQGSDLRPQFHQFTAVPHPNVKPMAYANTLLQLGMM
3 | – | binds | KAYARIGNSYFK (also called designed TPR peptide; source: synthetic peptide) [TPR peptide (KAYARIGNSYFK)]
